Data reported in PMC10849588.

Target: GMPCPP-stabilized, fluorescently labeled, biotinylated microtubules (untreated) (UniProt P02550)

wild-type full-length Cin8, GFP- and 6x His-tagged (from UniProt P27895 1-1000) (natural protein)
% of (+)-end movements, Clusters, 110 mM KCl: 41% | % of (+)-end movements, Monomers (single molecules), 110 mM KCl: 29% | % of total runs >60 s, Monomers (single molecules), 110 mM KCl: 17%
